Test results reported in patent publication US20190322984A1 (MUSC FOUNDATION FOR RESEARCH DEVELOPMENT, published 2019).

Molecular target: T1, mouse IL-2Rα on mouse effector CD8+ T cells (mouse, UniProt P01590 22-268)
T1 construct: whole, on cells; also called mIL-2Rα; CD25
T1 sequence (looked up): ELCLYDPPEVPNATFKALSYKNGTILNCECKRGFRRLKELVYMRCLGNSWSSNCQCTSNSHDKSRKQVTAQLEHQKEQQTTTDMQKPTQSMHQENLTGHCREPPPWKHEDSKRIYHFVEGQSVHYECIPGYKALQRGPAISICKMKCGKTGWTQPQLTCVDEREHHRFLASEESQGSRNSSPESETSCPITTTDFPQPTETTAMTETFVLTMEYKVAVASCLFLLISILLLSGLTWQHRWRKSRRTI
Assay: flow cytometry, surface IL-2 staining of mIL-2-pulsed polyclonal effector CD8+ T cells
Protocol: FIGS. 3a-3g—IL-2Rα facilitates sustained IL-2 signaling through creation of an extracellular reservoir and recycling. (a) Presence of IL-2 on the surface of polyclonal T cells depends on IL-2Rα. Polyclonal effector CD8⁺ T cells were pulsed for 2 hours with or without mIL-2. Prior to (and during) the pulse, T cells were incubated with anti-IL-2Rα mAb (PC61). Cells were then washed and stained for surface IL-2. (b) Time course of surface IL-2 on polyclonal T cells after reculture at 37° C. (c) Levels of pSTAT5 in Tc1 cells that were pulsed with IL-2, washed, and recultured at 37° C. with or without anti-IL-2 mAb (clone S4B6 or 1A12). (d) Recycling of IL-2 on effector T cells. Pmel-1 Tc1 cells were incubated with hIL-2 or mIL-2 at 37° C. for 2 hours. As indicated, cells were then acid washed and recultured at 37° C. for 90 minutes in the presence of anti-hIL-2 mAb conjugated to Alexa647. Cells were then washed, fixed, and assayed by flow cytometry. (e) Recycling of IL-2 on pulsed cells while mixed with non-pulsed cells. Pmel-1 Tc1 cells were pulsed with hIL-2 at either 4° C. or 37° C. for 2 hours, and then acid washed. Cells were then mixed with non-pulsed CFSE-labeled Tc1 cells. The mixed cells were recultured at 37° C. for 45 minutes in the presence of anti-hIL-2 mAb conjugated to Alexa647. Cells were then washed, fixed, and assayed by flow cytometry. […]

- binding result: binds
B1: Mouse (m) IL-2 (ligand, UniProt P04351 21-169, looked up)
chain: APTSSSTSSSTAEAQQQQQQQQQQQQHLEQLLMDLQELLSRMENYRNLKLPRMLTFKFYLPKQATELKDLQCLEDELGPLRHVLDLTQSKSFQLEDAENFISNIRVTVVKLKGSDNTFECQFDDESATVVDFLRRWIAFCQSIISTSPQ
notes: Bought recombinant cytokine; used at 200 ng/ml in pulse assays; also called mouse IL-2
